Experimental data taken from patent publication US20250034274A1 (Daiichi Sankyo, published 2025).

How the values were obtained:
[1] = target: T1, biotinylated human TROP2 antigen (human, UniProt P09758 27-274, C-terminal Avi tag sequence biotinylated); assay: ELISA, immobilised biotinylated human TROP2, anti-FLAG-HRP, chemiluminescence; scFv pre-incubated with MMP1
T1 construct: extracellular domain; Extracellular domain purified in house
T1 sequence (looked up): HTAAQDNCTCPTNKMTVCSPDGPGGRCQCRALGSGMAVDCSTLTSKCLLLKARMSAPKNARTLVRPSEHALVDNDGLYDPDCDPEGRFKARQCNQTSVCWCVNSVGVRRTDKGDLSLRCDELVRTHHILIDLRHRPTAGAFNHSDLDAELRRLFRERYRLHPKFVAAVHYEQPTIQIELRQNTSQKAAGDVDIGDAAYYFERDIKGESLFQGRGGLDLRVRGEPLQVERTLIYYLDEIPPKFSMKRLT
Method: (§1) NeutrAvidin (Thermo Fisher Scientific) diluted to 1 μg/ml with PBS was added at 50 μl/well to a 96-well Maxi-sorp plate (Black, Nunc) and immobilized at 4° C. overnight. The plate was washed with PBS containing 0.05% (w/v) Tween-20 (BioRad) (ELISA buffer) and then blocked with Blocker Casein (Thermo Fisher Scientific). The plate was washed with ELISA buffer, the biotinylated human TROP2 antigen (Accession Number: P09758; the extracellular domain was purified by the method known to a person skilled in the art and the C-terminal Avi tag sequence was then biotinylated) diluted to 1 μg/ml with PBS was added at 50 μl/well, and the resultant was then agitated for 30 minutes at room temperature. […] The plate was washed with ELISA buffer, the SuperSignal Pico ELISA chemiluminescent substrate (Thermo Fisher Scientific) was added, and chemiluminescence 10 minutes thereafter was then assayed using a plate reader.
(§2) The resultant was then added to the plate comprising the human TROP2 antigen immobilized thereon at 50 μl/well. The bound scFv was detected using the HRP-labeled anti-FLAG antibody (Sigma-Aldrich) diluted to 5,000-fold with ELISA buffer.

[2] = target: T1, biotinylated human TROP2 antigen; assay: ELISA on human TROP2, scFv with or without MMP1 cleavage
Method: as §2
Thereafter, the antibody with the concentration thereof being adjusted with ELISA buffer was added to the wells.

[3] = target: T1, biotinylated human TROP2 antigen; assay: ELISA, immobilised biotinylated human TROP2, anti-FLAG-HRP, chemiluminescence; scFv pre-incubated with MMP1; remark: listed apart in the source
Method: as §1, §2

[4] = target: T1, biotinylated human TROP2 antigen; assay: ELISA, immobilised biotinylated human TROP2, anti-FLAG-HRP, chemiluminescence; without MMP1
Method: as §1, §2

[5] = target: T1, biotinylated human TROP2 antigen; assay: ELISA, immobilised biotinylated human TROP2, anti-human IgG-HRP, chemiluminescence
Method: (§3) NeutrAvidin (Thermo Fisher Scientific) diluted to 1 μg/ml with PBS was added at 50 μl/well to a 96-well Maxi-sorp plate (Black, Nunc) and immobilized at 4° C. overnight. The plate was washed with PBS containing 0.05% (w/v) Tween-20 (BioRad) (ELISA buffer) and then blocked with Blocker Casein (Thermo Fisher Scientific). The plate was washed with ELISA buffer, the biotinylated human TROP2 antigen (Accession Number: P09758; the extracellular domain was purified by the method known to a person skilled in the art and the C-terminal Avi tag sequence was then biotinylated) diluted to 1 μg/ml with PBS was added at 50 μl/well, and the resultant was then agitated for 30 minutes at room temperature. […] The plate was washed with ELISA buffer, 50 μl of the horseradish peroxidase (HRP)-labeled anti-human IgG antibody (Jackson Immuno Research Laboratories) diluted to 2,500-fold with ELISA buffer was added, and the resultant was then agitated for 30 minutes at room temperature. The plate was washed with ELISA buffer, the SuperSignal Pico ELISA chemiluminescent substrate (Thermo Fisher Scientific) was added, and chemiluminescence 10 minutes thereafter was then assayed using a plate reader.

[6] = target: T1, biotinylated human TROP2 antigen; assay: ELISA, immobilised biotinylated human TROP2, anti-human IgG-HRP, chemiluminescence; antibody pre-incubated with MMP1
Method: as §3

[7] = target: T1, biotinylated human TROP2 antigen; assay: ELISA, immobilised biotinylated human TROP2, anti-human IgG-HRP, chemiluminescence; without MMP1
Method: as §3

[8] = target: T1, biotinylated human TROP2 antigen; assay: as above; remark: listed apart in the source
Method: as §3

[9] = target: T1, biotinylated human TROP2 antigen; assay: ELISA on human TROP2, antibody with or without MMP1 cleavage
Method: as §3

[10] = target: T1, biotinylated human TROP2 antigen; assay: ELISA, immobilised biotinylated human TROP2, anti-human IgG-HRP, chemiluminescence; antibody pre-incubated with MMP1; remark: listed apart in the source
Method: as §3

[11] = target: T1, biotinylated human TROP2 antigen; assay: ELISA, immobilised biotinylated human TROP2, anti-human IgG-HRP, chemiluminescence; without uPA
Method: as §3

[12] = target: T1, biotinylated human TROP2 antigen; assay: ELISA on human TROP2, antibody with or without uPA cleavage
Method: as §3

[13] = target: T1, biotinylated human TROP2 antigen; assay: ELISA, immobilised biotinylated human TROP2, anti-human IgG-HRP, chemiluminescence; antibody pre-incubated with uPA
Method: as §3

[14] = target: T1, biotinylated human TROP2 antigen; assay: ELISA, immobilised biotinylated human TROP2, anti-FLAG-HRP, chemiluminescence; scFv pre-incubated with MMP1; remark: listed apart in the source
Method: as §1, §2

[15] = target: T1, biotinylated human TROP2 antigen; assay: ELISA, immobilised biotinylated human TROP2, anti-FLAG-HRP, chemiluminescence; without MMP1; remark: listed apart in the source
Method: as §1, §2

[16] = target: T1, biotinylated human TROP2 antigen; assay: ELISA, immobilised biotinylated human TROP2, anti-FLAG-HRP, chemiluminescence; scFv pre-incubated with MMP1; remark: listed apart in the source
Method: as §1, §2

[17] = target: T1, biotinylated human TROP2 antigen; assay: ELISA, immobilised biotinylated human TROP2, anti-FLAG-HRP, chemiluminescence; without MMP1; remark: listed apart in the source
Method: as §1, §2

[18] = target: T2, biotinylated human GPRC5D amino terminal peptide (human, K(Biotin) at the C-terminus; C-terminal amide (NH2)); assay: ELISA, immobilised biotinylated human GPRC5D amino terminal peptide, anti-human IgG-HRP, chemiluminescence
T2 construct: The last K carries the biotin and is an added residue as printed; also called human GPRC5D antigen; humanGPRC5D antigen
T2 peptide: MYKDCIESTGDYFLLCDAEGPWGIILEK
Method: NeutrAvidin (Thermo Fisher Scientific) diluted to 1 μg/ml with PBS was added at 50 μl/well to a 96-well Maxi-sorp plate (Black, Nunc) and immobilized at 4° C. overnight. The plate was washed with PBS (ELISA buffer) containing 0.05 (w/v) % Tween-20 (BioRad) and then blocked with Blocker Casein (Thermo Fisher Scientific). The plate was washed with ELISA buffer, the biotinylated human GPRC5D amino terminal peptide ([sequence]-K(Biotin)-NH₂ (Peptide Institute, Inc.)) diluted to 1 μg/ml with PBS was added at 50 μl/well, and the resultant was agitated for 30 minutes at room temperature. The plate was washed with ELISA buffer, the MMP-buffered antibody was added at 50 μl/well, and the resultant was then agitated for 30 minutes at room temperature. The plate was washed with ELISA buffer, 50 μl of the horseradish peroxidase (HRP)-labeled anti-human IgG antibody (Jackson Immuno Research Laboratories) diluted to 2,500-fold with ELISA buffer was added, and the resultant was then agitated for 30 minutes at room temperature. The plate was washed with ELISA buffer, the SuperSignal Pico ELISA chemiluminescent substrate (Thermo Fisher Scientific) was added, and chemiluminescence 10 minutes thereafter was then assayed using a plate reader.

B1: MHT1001 (scFv)
scFv: AMGYLALKHPWPGLAENSGSGGGGSVLVPMAMMASGGSDVNSQVQLVQSGAEVKKPGASVKVSCKASGYTFTTAGMQWVRQAPGQGLEWMGWINTHSGVPKYAEDFKGRVTISADTSTSTAYLQLSSLKSEDTAVYYCARSGFGSSYWYFDVWGQGTLVTVSSGGGGSGGGGSGGGGSDIQMTQSPSSLSASVGDRVTITCKASQDVSTAVAWYQQKPGKAPKLLIYSASYRYTGVPSRFSGSGSGTDFTLTISSLQPEDFAVYYCQQHYITPLTFGQGTKLEIKRGAPSGDYKDDDDKGAAAHHHHHH
notes: also called positive clone MHT1001
[1]
  EC50 (read off the curve): ~8 nM
[2]
  EC50 ratio of binding (under the condition without the addition of MMP1/under the condition with the addition of MMP1): 7.9

B2: MHT1002 (scFv)
scFv: AMGYLALKHPWPGLAENSGSGGGGSVLVPMAMMASGGSDVNSDIQMTQSPSSLSASVGDRVTITCKASQDVSTAVAWYQQKPGKAPKLLIYSASYRYTGVPSRFSGSGSGTDFTLTISSLQPEDFAVYYCQQHYITPLTFGQGTKLEIKRGGGGSGGGGSGGGGSQVQLVQSGAEVKKPGASVKVSCKASGYTFTTAGMQWVRQAPGQGLEWMGWINTHSGVPKYAEDFKGRVTISADTSTSTAYLQLSSLKSEDTAVYYCARSGFGSSYWYFDVWGQGTLVTVSSGAPSGDYKDDDDKGAAAHHHHHH
notes: Mimotope peptide, MMP cleavable linker, HT1-11 scFv, FLAG tag, His tag; also called positive clone MHT1002
[3]
  EC50 (read off the curve): ~3 nM
[4]
  EC50 (read off the curve): 10 to 20 nM
[2]
  EC50 ratio of binding (under the condition without the addition of MMP1/under the condition with the addition of MMP1): 4.3

B3: anti-TROP2 antibody HT1-11 (antibody)
heavy: not shown
light: DIQMTQSPSSLSASVGDRVTITCKASQDVSTAVAWYQQKPGKAPKLLIYSASYRYTGVPSRFSGSGSGTDFTLTISSLQPEDFAVYYCQQHYITPLTFGQGTKLEIKRTVAAPSVFIFPPSDEQLKSGTASVVCLLNNFYPREAKVQWKVDNALQSGNSQESVTEQDSKDSTYSLSSTLTLSKADYEKHKVYACEVTHQGLSSPVTKSFNRGEC
notes: Known antibody of WO 2015/098099; Entries are called full-length
[5]
  EC50 (read off the curve): ~0.6 nM
[6]
  EC50 (read off the curve): ~0.5 nM
[7]
  EC50 (read off the curve): ~0.5 nM

B4: anti-TROP2 masked antibody MHT1007 (antibody)
heavy: not shown
light: B3 light
notes: IgG-type; MHT1001 mimotope and MMP cleavable linker fused to the heavy chain
[8]
  EC50 (read off the curve): ~30 nM
[9]
  EC50 ratio of binding (under the condition without the addition of MMP1/under the condition with the addition of MMP1): 104
[10]
  EC50 (read off the curve): ~0.3 nM

B5: anti-TROP2 masked antibody MHT1009 (antibody)
heavy: not shown
light: B3 light
notes: IgG-type
[11]
  EC50 (read off the curve): ~90 nM
[12]
  EC50 ratio of binding (under the condition without the addition of uPA/under the condition with the addition of uPA): 83
[13]
  EC50 (read off the curve): ~1 nM

B6: HT1-11-scFv-HL (scFv)
scFv: ADVNSQVQLVQSGAEVKKPGASVKVSCKASGYTFTTAGMQWVRQAPGQGLEWMGWINTHSGVPKYAEDFKGRVTISADTSTSTAYLQLSSLKSEDTAVYYCARSGFGSSYWYFDVWGQGTLVTVSSGGGGSGGGGSGGGGSDIQMTQSPSSLSASVGDRVTITCKASQDVSTAVAWYQQKPGKAPKLLIYSASYRYTGVPSRFSGSGSGTDFTLTISSLQPEDFAVYYCQQHYITPLTFGQGTKLEIKRGAPSGDYKDDDDKGAAAHHHHHH
notes: No mimotope fused; expressed in E. coli, purified on Ni Sepharose; also called scFv-type anti-TROP2 antibody
[14]
  EC50 (read off the curve): ~4 nM
[15]
  EC50 (read off the curve): ~5 nM

B7: HT1-11-scFv-LH (scFv)
scFv: ADVNSDIQMTQSPSSLSASVGDRVTITCKASQDVSTAVAWYQQKPGKAPKLLIYSASYRYTGVPSRFSGSGSGTDFTLTISSLQPEDFAVYYCQQHYITPLTFGQGTKLEIKRGGGGSGGGGSGGGGSQVQLVQSGAEVKKPGASVKVSCKASGYTFTTAGMQWVRQAPGQGLEWMGWINTHSGVPKYAEDFKGRVTISADTSTSTAYLQLSSLKSEDTAVYYCARSGFGSSYWYFDVWGQGTLVTVSSGAPSGDYKDDDDKGAAAHHHHHH
notes: as for B6
[16]
  EC50 (read off the curve): ~3 nM
[17]
  EC50 (read off the curve): ~3 nM

B8: anti-GPRC5D antibody C3022 (antibody, V domains shown)
VH: QVQLVQSGAEVKKPGASVKVSCKASGYTFTGYYMHWVRQAPGQGLEWMGRINPNSGGTNYAQKFQGRVTMTRDTSISTAYMELSGLRSDDTAVYYCASGSVRHPWGQGTLVTVSS
VL: QPVLTQPPSASGTPGQRVTISCSGSRSNIGGNIVSWYQQFPGTAPRLLTYADNQRPSGVPDRFSGSKSGTSASLAISGLQSEDEADYYCAAWDDSLNGVVFGGGTKLTVLG
notes: Known antibody of WO 2018/147245
[18]
  EC50 (read off the curve): ~0.3 nM
